The record followed here is patent US20210292392A1.

What all share (assay): cell-based or functional assay
The target in experiment [1] is full length S protein of SARS-CoV-2 (on pseudovirus) (SARS-CoV-2) (UniProt P0DTC2).
In experiment [2] the target is spike protein on live SARS-CoV-2 (SARS-CoV-2) (UniProt P0DTC2).
For experiment [3], the target named is spike (S) protein of live SARS-CoV-2 (SARS-CoV-2) (UniProt P0DTC2).
The target in experiment [4] is spike protein of live SARS-CoV-2 (SARS-CoV-2) (UniProt P0DTC2).

In experiment [1], P2C-1F11 (antibody) returned a Pseudovirus IC50 of 0.0286 µg/mL and a Pseudovirus IC80 of 0.119 µg/mL. This substance also came in with an IC50, live SARS-CoV-2 focus reduction neutralization test (FRNT) in experiment [2] of 0.03 µg/mL. In experiment [3], this substance gave a Live virus IC50 of 0.0323 µg/mL and a Live virus IC80 of 0.178 µg/mL. In experiment [4], the Live virus IC50 worked out at 0.0323 µg/mL and the Live virus IC80 was 0.178 µg/mL.
